T1: His-labeled cynomolgus monkey CD3E (purchased from Acro Biosystems) (cynomolgus monkey, UniProt Q95LI5 22-117)
T1 construct: also called Cynomolgus monkey CD3E antigen; not shown: His label
T1 sequence (looked up): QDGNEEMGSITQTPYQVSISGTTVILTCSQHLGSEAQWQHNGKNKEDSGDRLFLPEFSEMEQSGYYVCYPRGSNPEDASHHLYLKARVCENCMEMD


Columns and labels:
[1] = biological target: T2, human CD3 on human T cells (human, UniProt P07766 23-207); test: flow cytometry on human primary T cells
T2 construct: whole, on cells; also called human primary T cells; NFAT-Jurkat cells
T2 sequence (P07766 23-207): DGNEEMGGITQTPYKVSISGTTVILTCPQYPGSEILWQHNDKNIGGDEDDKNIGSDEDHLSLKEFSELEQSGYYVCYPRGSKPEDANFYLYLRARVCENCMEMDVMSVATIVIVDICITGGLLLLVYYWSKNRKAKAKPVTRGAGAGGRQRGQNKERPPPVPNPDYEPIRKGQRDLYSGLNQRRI

[2] = biological target: T3, His-labeled human CD3E (human, UniProt P07766 23-126); test: ELISA, plate coated with His-labeled human CD3E
T3 construct: also called human CD3E antigen; antigen CD3E; not shown: His label
T3 sequence (P07766 23-126): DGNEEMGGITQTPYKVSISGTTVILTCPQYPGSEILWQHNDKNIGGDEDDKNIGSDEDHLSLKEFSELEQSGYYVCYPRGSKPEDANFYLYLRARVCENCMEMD
Description: (§1) A microtiter plate was coated with 0.1 μg/mL His-labeled human or cynomolgus monkey CD3E (purchased from Acro Biosystems) (100 μL/well) overnight at 4° C. The coating solution was discarded, and the microtiter plate was blocked with 1% PBSB (200 μL/well), incubated for 1 h at 37° C. and washed with PBS containing 0.05% Tween-20. The diluted CD3 humanized antibodies AB611 and AB614 with a series of concentrations were added (100 μL/well), incubated for 1 h at 37° C. and washed with 0.05% PBST, and HRP-labeled goat anti-human IgG (H+L) (Jackson Laboratory) was added as the detection antibody and incubated for 1 h at 37° C. The wells were washed three times with 0.05% PBST, added with TMB (100 μL/well) and developed at room temperature for 5 min. 0.2 M H₂SO₄ was added to terminate the reaction, 50 μL/well. Absorption values were read by a microplate reader at double wavelengths 450 nm/620 nm. Plotting was performed by software GraphPad Prism 6 with OD 450 nm/620 nm as the Y-axis and an antibody concentration as the X-axis.

[3] = biological target: T1, His-labeled cynomolgus monkey CD3E …; test: ELISA, plate coated with His-labeled cynomolgus monkey CD3E
Description: as §1

[4] = biological target: T2, human CD3 on human T cells; test: cell-based or functional assay
[5] = biological target: T3, His-labeled human CD3E; test: BLI (Octet), method of Example 3: His-labeled human CD3E on Ni-NTA sensors
Description: The binding affinity constants of the purified murine monoclonal antibodies to antigen CD3E were determined by […] (BLI) with the ForteBio Octet RED&QK system from PALL Corporation. Concentration gradients of a multichannel parallel quantitative analysis were set to 3.125, 6.25, 12.5, 25, 50 and 100 nM, and His-labeled human CD3E (10 μg/mL) was coupled to Ni-NTA sensors.
For example, the experimental method for determining the kinetic constants and affinity equilibrium dissociation constants of the humanized antibodies was as described in Example 3.

| EC50 [1] [nM] | EC50 [2] [nM] | EC50 [3] [nM] | EC50 of activating T cells (luciferase of NFAT RE reporter Jurkat T cells) [4] [nM] | Kd [5] [nM] | koff [5] [s⁻¹] | kon [5] [M⁻¹ s⁻¹] | Binder |
| --- | --- | --- | --- | --- | --- | --- | --- |
| 0.174 | 0.00833 | 0.00483 |  |  |  |  | humanized antibody AB611 (antibody, human IgG4 S228P, kappa, V domains shown, Humanized from AP831 CDRs) VH: EVQLVQSGAEVKKPGSSVKVSCKASGYTFTNNYIHWVKEKPGQGLEWIGWIYPGDGTTKYNEKFKGKTTLASDKSTNTAYMELSSLRSEDTAIYFCTRNNNYYFDYWGQGTTVTVSS VL: DIVMTQSPDSLAVSLGERATMNCKSSQSLFNSRTRKNYLAWYQQKPGESPKLLIYWASTRESGVPDRFSGSGSGTDFTLTISSLQAEDVAVYYCKQSFILRTFGGGTKVEIKR |
| 1.18 | 0.00913 | 0.00755 | 0.142 | 0.0196 | 1.45e-05 | 741000 | humanized antibody AB614 (antibody, human IgG4 S228P, kappa, V domains shown, Humanized from AP591 CDRs) VH: EVQLLESGGGLVQPGGSLKLSCAASGFTFNTYAMNWVRQAPGKGLEWVGRIRSKINNYATYYADSVKDRFTISRDDSKNTAYLQMNNLKTEDTAMYYCVRHDNFYGSTYSWFADWGQGTLVTVSS VL: ELVVTQEPSLTVSPGGTVTLTCRSSTGVVTTSNYANWVQEKPDHLFTGLIGATNYRAPGTPARFSGSLLGGKAALTLSGVQPEDEAIYFCVLWYSNHWVFGGGTKLTVLR |

Source: patent US20240317857A1 (AMPSOURCE BIOPHARMA SHANGHAI, published 2024)
